The target in assay [1] is LarE from Methanococcus maripaludis (Methanococcus maripaludis). Description: SEC-MALS; holo-form ([4Fe-4S] cluster reconstituted anaerobically; analysed aerobically immediately after thawing); 100 µL at ~2 mg·mL^−1 injected on Superdex 200 increase 10/300 GL, 0.5 mL·min^−1, 25 mM HEPES pH 7.5, 300 mM NaCl, 5 mM DTT; monomer or dimer.
Assay [2] has the same target. Description: SEC-MALS; apo-form (as-purified protein, <5% cluster); 100 µL at ~2 mg·mL^−1 injected on Superdex 200 increase 10/300 GL, 0.5 mL·min^−1, 25 mM HEPES pH 7.5, 300 mM NaCl, 5 mM DTT; monomer or dimer.
Assay [3] concerns the target human mitoNEET (human). Description: SEC-MALS; holo-form ([2Fe-2S] cluster bound); 100 µL at ~2 mg·mL^−1 injected on Superdex 200 increase 10/300 GL, 0.5 mL·min^−1, 50 mM sodium phosphate pH 7.5, 50 mM NaCl, 10 mM DTT; monomer or dimer. Background: In gel filtration, larger molecules generally elute earlier.
Assay [4] addresses human CISD2 (human). Described as above.
Assay [5] has as its target CyuA from Methanococcus maripaludis (Methanococcus maripaludis). Description: SEC-MALS; holo-form ([4Fe-4S] cluster reconstituted anaerobically; analysed aerobically immediately after thawing); 100 µL at ~2 mg·mL^−1 injected on Superdex 200 increase 10/300 GL, 0.5 mL·min^−1, 25 mM HEPES pH 7.5, 300 mM NaCl, 5 mM DTT; monomer or dimer.
Assay [6] shares this target. Description: SEC-MALS; apo-form (as-purified protein, <5% cluster); 100 µL at ~2 mg·mL^−1 injected on Superdex 200 increase 10/300 GL, 0.5 mL·min^−1, 25 mM HEPES pH 7.5, 300 mM NaCl, 5 mM DTT; monomer or dimer.

One may read the stoichiometry N as the number of molecules, sites or subunits per partner or assembly.

Regarding “LarE from Methanococcus maripaludis (enzyme)”, the stoichiometry N in assay [1] and in assay [2] was 2 throughout. Turning to human mitoNEET (domain or fragment), the stoichiometry N in assay [3] was determined as 2. Substance human CISD2 (domain or fragment) came in with a stoichiometry N in assay [4] of 2.

As to “CyuA from Methanococcus maripaludis (enzyme)”, the stoichiometry N in assay [5] and in assay [6] was 2 each time.

These data come from PMC8961635.
